B1: Heavy metal-associated isoprenylated plant protein 26 (Arabidopsis thaliana (Mouse-ear cress)), Q9SZN7 (parent)
chain: MGVLDHVSEMFDCSHGHKIKKRKQLQTVEIKVKMDCEGCERKVRRSVEGMKGVSSVTLEPKAHKVTVVGYVDPNKVVARMSHRTGKKVELWPYVPYDVVAHPYAAGVYDKKAPSGYVRRVDDPGVSQLARASSTEVRYTTAFSDENPAACVVM
partner: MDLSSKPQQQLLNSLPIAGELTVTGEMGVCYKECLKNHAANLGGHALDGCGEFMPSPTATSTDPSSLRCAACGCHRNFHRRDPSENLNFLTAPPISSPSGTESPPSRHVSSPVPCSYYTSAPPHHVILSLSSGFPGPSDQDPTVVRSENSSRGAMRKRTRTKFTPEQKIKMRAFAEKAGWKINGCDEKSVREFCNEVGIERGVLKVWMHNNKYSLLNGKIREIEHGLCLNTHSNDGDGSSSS

Variants of: B1
Details: with zhd11_arath ZHD11, Q9SEZ1

Variant | effect of a mutation on the interaction
C36G;C39G | disrupting interaction

From IntAct's records for PubMed 18974936
